41 sequences from the nanobody polyreactivity screen of Harvey et al. (2022) can be followed below.

This data set can be described thus: yeast display, Sf9 membrane polyspecificity reagent, FACS + sequencing; frameworks hold sequencing errors. The gist of the method: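 A nanobody's polyreactivity label depends on the gate it was sorted from. Yeast display cells were stained with 10% biotinylated, detergent-solubilized Sf9 membrane reagent for 1 hour at 4 °C, enriched on streptavidin microbeads and sorted by FACS. The low and high (top ~1%) gates were set on anti-HA fluorescence for expression and streptavidin fluorescence for reagent binding.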
Turning to “QVQLVESGGGLVQAGGSLRLSCAASGSIFARYAMGWYRQAPGKERELVAAITRSGVSTYYADSVKGRFTISRDNAKNTVYLQMNSLKPEDTAVYNCNAYYPIRSTPYGYYYWGQGTQVTVSS”, the “polyreactivity (PSR sort gate)” value is given as “high polyreactivity”.

For “QVQLVESGGGLVQAGGSLRLSCAASGSIFASNAMGWYRQAPGKERELVAAITSSGRTKYADSVKGRFTISRDNAKNTVYFQMNSLKPEDTAVYYCAAVYYTYFGRYDYWGQGTQVTVSS”, the “polyreactivity (PSR sort gate)” value is “high polyreactivity”. “QVQLVESGGGLVQAGGSLRLSCAASGSIFASNAMGWYRQAPGTERELVAAIDTSGGSTYYADSVKGRFTISRDNAKNTVYLQMNSLKPEDTAVYYCNTDWRDEYYPRYRASKFDYWGQGTQVTVSS”: the “polyreactivity (PSR sort gate)” value was “low polyreactivity”. “QVQLVESGGGLVQAGGSLRLSCAASGSIFASYAMGRYRQAPGKERELVAAISRSGGSTYYADSVKGRFTISRDNAKNTVYLQMNSLKPEDTAVYYCATGKIREDDYWGQGTQVTVSS”: the “polyreactivity (PSR sort gate)” value is “high polyreactivity”. With “QVQLVESGGGLVQAGGSLRLSCAASGSIFASYAMGWYRQAPGKERELVAAISWNGGSTYYADSVKGRFTISRDNAKNTVYFQMNSLKPEDTAVYYCAAVNRKSQLYGYWGQGTQVTVSS” the entry was “high polyreactivity”. With “QVQLVESGGGLVQAGGSLRLSCAASGSIFASYAMGWYRQAPGKERELVAAITYSGSRTYYADSVKGRFTISRDTAKNTVYLQMNSLKPEDTAVYYCNADYYWYPYEDDYWGQGTQETVSS” the entry was “low polyreactivity”; with “QVQLVESGGGLVQAGGSLRLSCAASGSIFASYVMGWYRQAPGKERELVAAISSSGASTYYADSVKGRFTISRDNAKNTVSLQMNSLKPEDTAVSYCATPYYRSYLGDYWGQGTQVTVSS”, “high polyreactivity”; with “QVQLVESGGGLVQAGGSLRLSCAASGSIFATNAMGWYRQAPGKERELVASISSGGGSTYYADSVKGRFTISRDNAKNTVYLQMNSLKPEDTAVYYCARRIGHGSRPYWLETWRYPYDYWGQGTQVTVSS”, “low polyreactivity”.

As to “QVQLVESGGGLVQAGGSLRLSCAASGSIFATNSMGWYRQAPGKERELVAAISRSGASTYYADSVKGRFTISRDNAKNTVYLQMNSLKPEDTAVYYCNKVLYRDAYHSYCFDYWGQGTQVTVSS”, the “polyreactivity (PSR sort gate)” value is on record as “high polyreactivity”. For “QVQLVESGGGLVQAGGSLRLSCAASGSIFATYAMGWYRQAPGKERELVAAISSSGSRTYYADSVKGRFTISRDNAKNTVYLQMNSLKPEDTAVYYCAKAYLSPYQYDYWGQGTQVTVSS” the value was “high polyreactivity”; for “QVQLVESGGGLVQAGGSLRLSCAASGSIFATYAMGWYRQAPGKERELVAAITSSDGSTNYADSVKGRFTISRDNAKNTVYLQMNSLKPEDTAVYYCATDAPDRTDSDSGFDAGYDYWGQGTQVTLSS”, “low polyreactivity”; for “QVQLVESGGGLVQAGGSLRLSCAASGSIFAVYAMGWYRQAPGKERELVAAISVSGGRTYYADSVKGRFTISRDNAKNTVYLQMNSLKPEDTAVYYCAARSLSYYRSRAAQYGWGYYYWGQGTQVTVSS”, “high polyreactivity”. As to “QVQLVESGGGLVQAGGSLRLSCAASGSIFAVYAMGWYRQAPGKERELVAASSTDYADSVKGRFTISRDYAKNTVYLQMNSLKPEDTAVYYCANVGFGIPGGFYYWGQGTKVTVSS”, the “polyreactivity (PSR sort gate)” value is recorded as “low polyreactivity”. With “QVQLVESGGGLVQAGGSLRLSCAASGSIFAVYAMGWYRQAPGKERELVATITGIDTGTYYADSVKGRFTISRDNAKNTVYLQMNSLKPEDTAVYYCAAVWRYRHLRFYYWGQGTQVTVSS”, the “polyreactivity (PSR sort gate)” value is given as “high polyreactivity”.

“QVQLVESGGGLVQAGGSLRLSCAASGSIFAVYTMGWYRQAPGKEREVVAAITKSGGRTYYADSVKGRFTISRDNAKNTVYLQMNSLKPEDTAVYYCARRRTIPYTLVDYDSWGQGTQVTVSS”: the “polyreactivity (PSR sort gate)” value is recorded as “low polyreactivity”. For “QVQLVESGGGLVQAGGSLRLSCAASGSIFAWYAMGWYRPAPGKEWELVAVITRGGSTNYADSLKGRFTISRDNAKNTVYLQMNSLKPEDTAVKYCAAGSYYSWYPFDYWGQGTQVTVSS” the value was “low polyreactivity”. For “QVQLVESGGGLVQAGGSLRLSCAASGSIFAWYAMGWYRQAPGKERELVAAISYRGGRTYYADSVKGRFTISRDNAKNTVYLQMNSLKPEDTAVYYCATDANRGYPSYDYWGQGTQVTVSS” the value was “high polyreactivity”. As to “QVQLVESGGGLVQAGGSLRLSCAASGSIFAYAMGWYRKAPGKEREFVAAISGGSTYYADSVKGRFTISRDNAKNTVYLQMNSLKPEDTAVYYCAADLDDERYYWGQGTQVTVSS”, the “polyreactivity (PSR sort gate)” value is reported as “low polyreactivity”. With “QVQLVESGGGLVQAGGSLRLSCAASGSIFAYKAKGWYRQAPGKEREFVAVITRSDDSTYAYSVKGRFTISRDNAKNPFYLQMNSLKAEDTAVYYCARRWSYLRPSLEYDSWGQGTQVTVSS” the entry was “low polyreactivity”.

On to “QVQLVESGGGLVQAGGSLRLSCAASGSIFAYNAKGWYRPAPGKEREFVAVITRSDDSTYADSVKWRFTISRDNAKNTVYLQMNSLKPEDTSVYYCAAQPFVIDCGYRGDYWGQATQVTVSS”, for which the “polyreactivity (PSR sort gate)” value is given as “low polyreactivity”. For the sequence “QVQLVESGGGLVQAGGSLRLSCAASGSIFAYNAMGWYRQAPGKDREFVAAISQSGGRTYYAHSVKGRFTISRDNAKNTVYLQMNILKPEDTAVYYCATDGIRLTRHRDYDYWGQGTQVTVSS”, the “polyreactivity (PSR sort gate)” value is on record as “low polyreactivity”. For the sequence “QVQLVESGGGLVQAGGSLRLSCAASGSIFAYNAMGWYRQAPGKERELVATINWIGGRTYYADSVKGRFTISRDNAKNTVYLQMNSLKPEDTAVYYCAKERWYLGVSNGHVLVDYDHWGQGTQVTVSS”, the “polyreactivity (PSR sort gate)” value is “low polyreactivity”.

As for “QVQLVESGGGLVQAGGSLRLSCAASGSIFAYYAMGWYRQAPGKEREIVAAISKRGGRTYYADSVKGRFTISRDNAKNTVYLQMNSLKPEDTAVYYCATVGVRTNLNRYGYWGQGTQVTVSS”, the “polyreactivity (PSR sort gate)” value is listed as “high polyreactivity”.

With “QVQLVESGGGLVQAGGSLRLSCAASGSIFAYYAMGWYRQAPGKERELVAAIDSRGGSTYYADSVKGRFTISRDNAKNTVYLQMNSLKPEDTAVYYCAARLRYPRRGQGDNYWGQGTQVTVSS”, the “polyreactivity (PSR sort gate)” value is “low polyreactivity”. Consider “QVQLVESGGGLVQAGGSLRLSCAASGSIFAYYAMGWYRQAPGKERELVAAISSGGGTYYADSVKGRFTISRDNAKNTVYLQMNSLKPEDTAVYYCARRYRAHYQYLYDYWGQGTQVSVSS”, for which the “polyreactivity (PSR sort gate)” value was “low polyreactivity”. With “QVQLVESGGGLVQAGGSLRLSCAASGSIFAYYAMGWYRQAPGKERELVASISSVGTTKYADSVKGRFTISRDNAKNTVYLQMNSLKPEDTAVYYWATDGYSPAAFDYWGQGTQVTVSS” the entry was “low polyreactivity”; with “QVQLVESGGGLVQAGGSLRLSCAASGSIFAYYAMGWYRQAPGKESELVADITSSGGITYYADSVKGRFTISRDNAKNTVYLQMISLKPEDTAVYYCNADSWAIGGGSYPYDYWGHGTQVTVSS”, “low polyreactivity”. For “QVQLVESGGGLVQAGGSLRLSCAASGSIFAYYTMGWYRQAAGNERELVAVINASGGGTYYADSVKGRFTISRDNAKNTVYLQMNSLKPEDTAVYYCAATYSPFDFYYWGQGTQVTVSS” the value was “low polyreactivity”. Regarding “QVQLVESGGGLVQAGGSLRLSCAASGSIFAYYTMGWYRQAPGKERELVATISSGDITNYADSVKGRFTISRDNAKNTVYLQMNSLKPEDTAVYYCAAAELTSYYRTFIHQDYDYWGQGTQVTVSS”, the “polyreactivity (PSR sort gate)” value is “low polyreactivity”. Consider “QVQLVESGGGLVQAGGSLRLSCAASGSIFAYYTMGWYRQAPGNERELVAALSRSGGSTNYADSVKGRFTISRDNAKNTVYLQMISLKPEDTAVYYCAVRRYSRRLFGYYYWGQGTQVTVSS”, for which the “polyreactivity (PSR sort gate)” value is recorded as “high polyreactivity”. Turning to “QVQLVESGGGLVQAGGSLRLSCAASGSIFCRNAMGWYRQAPGKERELVAAITSGGTTNYADSVKGRFTISRDNAKNSVYLQMNSLKPEDTAVYYCATRASYLRRYDHPHSDVDYWGQGTQVTVSS”, the “polyreactivity (PSR sort gate)” value was “low polyreactivity”. With “QVQLVESGGGLVQAGGSLRLSCAASGSIFDANAMGCYRQAPGKERELVAAINWTGGSTYYADSVKGRFTISRDNAKNTVYLQMNSLKPEDTAVYYCAAEWWYPYNPDIYYYWGQGIQVTVSS” the entry was “high polyreactivity”. With “QVQLVESGGGLVQAGGSLRLSCAASGSIFDANAMGWYRQAPGKEREVVAAISYRGGRTYYADSVKGRFTISRDNAKNTVYLQMNSLKPEDTAVYYCNAGISHRSDNGIDGYYWGQGTQVTVSS” the entry was “high polyreactivity”. For the sequence “QVQLVESGGGLVQAGGSLRLSCAASGSIFDAYAMGWYRQAPGKERELVAAISSGGNTNYADSVKGRFTISRDNAKNTVDLQMNSLKPEDTAVYYCAADFTHPDGLPGFDYWGQGTQVTVSS”, the “polyreactivity (PSR sort gate)” value is recorded as “low polyreactivity”.

Consider “QVQLVESGGGLVQAGGSLRLSCAASGSIFDDYAMGWYRQAPGKERELVAAISSSGTSTYYADSVKGRFTISRDNAKNTVYLQMNSLKPEDTAVYYCAARSAILKSGYLMDYWGQGTQVTVSS”, for which the “polyreactivity (PSR sort gate)” value is “low polyreactivity”. With “QVQLVESGGGLVQAGGSLRLSCAASGSIFDFNALGWYRQAPGKERELVAAITYSGGRTYYADSVKGRFTISRDNGKYTVYLQMNSMKPEDTAVFYCAVNSFSGHGDYWGQGTQVTVSS” the entry was “low polyreactivity”. Consider “QVQLVESGGGLVQAGGSLRLSCAASGSIFDGNAMGWYRQAPGKERELVAAISRRGGSTYYADSVKGRFTISRDKAKNTVYLQMNSLKPEDTAVYYCNAYLSYFDGNYWGQGTQVTVSS”, for which the “polyreactivity (PSR sort gate)” value was “high polyreactivity”. For “QVQLVESGGGLVQAGGSLRLSCAASGSIFDINAMGWYRQAPWKERELVAAISLSAGSTYYADSVKGRFTISRDNSKNTVYFQMNSLYPDDAAVFYCNADGWYGYWGQVTQVTVSS” the value was “low polyreactivity”; for “QVQLVESGGGLVQAGGSLRLSCAASGSIFDIYAMGWYRPAPGKERELVAAISLSAGSTYYADSVKGRFTISRDNAKNTVYLQMNSLKPEDTAVYYCNADGWYGYWGQGTQVTVSS”, “low polyreactivity”; for “QVQLVESGGGLVQAGGSLRLSCAASGSIFDIYAMGWYRQAPGKERELVATITWDGVSTYYADSVKGRFTISRDNAKNTVYLQMNSLKPEDTAVYYCNVVVRYPSAYDYWGQGTQVTVSS”, “high polyreactivity”. For “QVQLVESGGGLVQAGGSLRLSCAASGSIFDIYGMGWYRKAPGKERELVASISGGAGSTNYADSVKGRFTISRDNAKNTVYLQMNSLKPEDTAVYYCAAEVYVPDYFQHKFDVEYEYWGQGTQVTVSS” the value was “low polyreactivity”.
